Results on ten molecules are retold here after patent US20240400717A1 (NATIONAL CHENG KUNG UNIVERSITY, published 2024).

Where a chain is given by its changes, count along the chain named. Where two headings read alike, the source gives them in different places.

The target in test [1] is T1, human CHI3L1 extracellular domain fused with flag and His tag recombinant protein (human, UniProt P36222 22-383).
T1 construct: extracellular domain; also called hCHI3L1/flag-His; hCHI3L1; not shown: flag and His tag
In words: BLI (ForteBio Octet), mAb captured on AHC sensor, hCHI3L1/flag-His as analyte.

In test [2] the target is T2, mouse rCHI3L1 (mouse, UniProt Q61362 30-389, limits assumed).
T2 construct: also called mouse CHI3L1; murine CHI3L1
In words: phage ELISA (4th round single clone screening): coated protein, rescued phage supernatant, anti-M13-HRP, OD450. (ELISA stands for enzyme-linked immunosorbent assay.)

Test [3] has as its target T3, human chitotriosidase-1 (CHIT1) (human, UniProt Q13231 22-466, limits assumed). In words: ELISA: coated recombinant protein titrated 2.50 to 0.00 µg/ml, antibody at 1 µg/ml, OD450.
The target in test [4] is T4, recombinant human CHI3L1 (human, UniProt P36222 22-383).
T4 construct: also called rCHI3L1; human rCHI3L1
The test is described as above.

Test [5] deals with T5, CHI3L2 (human, UniProt Q15782 27-390, limits assumed).
T5 construct: The sentence reads 'human chitotriosidase-1 (CHIT1) and CHI3L2'
T5 sequence (looked up): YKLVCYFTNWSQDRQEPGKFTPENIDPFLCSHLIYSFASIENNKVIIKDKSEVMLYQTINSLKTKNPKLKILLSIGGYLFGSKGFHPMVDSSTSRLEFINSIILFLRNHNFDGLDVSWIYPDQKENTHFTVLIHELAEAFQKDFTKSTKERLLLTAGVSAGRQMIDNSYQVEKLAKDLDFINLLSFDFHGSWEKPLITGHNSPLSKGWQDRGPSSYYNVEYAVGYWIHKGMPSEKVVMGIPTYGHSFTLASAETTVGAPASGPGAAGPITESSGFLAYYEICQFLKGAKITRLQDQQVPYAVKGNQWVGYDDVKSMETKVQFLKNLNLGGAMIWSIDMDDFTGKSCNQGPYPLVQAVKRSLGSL
Described as above.

In test [6] the target is T2, mouse rCHI3L1. In words: phage ELISA (4th round single clone screening): coated protein, rescued phage supernatant, anti-M13-HRP, OD450. The source holds these as a separate data set.
Test [7] concerns the target T4, recombinant human CHI3L1. Briefly: ELISA: coated human rCHI3L1 titrated 2.5 to 0 µg/ml, antibody concentration not given, OD450.
For test [8], the target named is T3, human chitotriosidase-1 (CHIT1). In words: ELISA: coated recombinant protein titrated 2.50 to 0.00 µg/ml, antibody at 1 µg/ml, OD450. The source holds these as a separate data set.
Test [9] has as its target T4, recombinant human CHI3L1. The test is described as above. The source holds these as a separate data set.
Test [10] concerns the target T5, CHI3L2. The description is as above. The source holds these as a separate data set.
For test [11], the target named is T4, recombinant human CHI3L1. Briefly: phage ELISA (4th round single clone screening): coated protein, rescued phage supernatant, anti-M13-HRP, OD450.
The target in test [12] is T3, human chitotriosidase-1 (CHIT1). Briefly: ELISA: coated recombinant protein titrated 2.50 to 0.00 µg/ml, antibody at 1 µg/ml, OD450. The source holds these as a separate data set.
Test [13] addresses T4, recombinant human CHI3L1. The test is described as above. The source holds these as a separate data set.
Test [14] deals with T5, CHI3L2. Described as above. The source holds these as a separate data set.
Test [15] has as its target T2, mouse rCHI3L1. Briefly: phage ELISA (3rd round single clone screening): coated protein, rescued phage supernatant, anti-M13-HRP, OD450.
Test [16] has as its target T4, recombinant human CHI3L1. Briefly: phage ELISA (4th round single clone screening): coated protein, rescued phage supernatant, anti-M13-HRP, OD450. This is another data set of the same source.
Test [17] concerns the target T3, human chitotriosidase-1 (CHIT1). Briefly: ELISA: coated recombinant protein titrated 2.50 to 0.00 µg/ml, antibody at 1 µg/ml, OD450. The source holds these as a separate data set.
Test [18] addresses T4, recombinant human CHI3L1. Described as above. The source holds these as a separate data set.
The target of test [19] is T5, CHI3L2. The description is as above. This is another data set of the same source.
Test [20] deals with T2, mouse rCHI3L1. Briefly: ELISA: coated mouse rCHI3L1 titrated 2.5 to 0 µg/ml, antibody concentration not given, OD450.

T2 sequence (Q61362 30-389 limits assumed): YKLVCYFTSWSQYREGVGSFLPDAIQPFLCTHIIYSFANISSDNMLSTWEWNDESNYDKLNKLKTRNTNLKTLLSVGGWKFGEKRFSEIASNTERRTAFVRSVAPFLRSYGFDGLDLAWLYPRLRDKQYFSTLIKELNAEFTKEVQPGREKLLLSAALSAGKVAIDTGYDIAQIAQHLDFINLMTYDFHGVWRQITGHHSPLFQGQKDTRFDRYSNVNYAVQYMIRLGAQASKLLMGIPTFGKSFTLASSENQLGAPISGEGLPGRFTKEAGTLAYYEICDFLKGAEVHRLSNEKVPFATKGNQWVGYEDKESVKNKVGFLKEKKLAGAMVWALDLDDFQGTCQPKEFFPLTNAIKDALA
T3 sequence (Q13231 22-466 limits assumed): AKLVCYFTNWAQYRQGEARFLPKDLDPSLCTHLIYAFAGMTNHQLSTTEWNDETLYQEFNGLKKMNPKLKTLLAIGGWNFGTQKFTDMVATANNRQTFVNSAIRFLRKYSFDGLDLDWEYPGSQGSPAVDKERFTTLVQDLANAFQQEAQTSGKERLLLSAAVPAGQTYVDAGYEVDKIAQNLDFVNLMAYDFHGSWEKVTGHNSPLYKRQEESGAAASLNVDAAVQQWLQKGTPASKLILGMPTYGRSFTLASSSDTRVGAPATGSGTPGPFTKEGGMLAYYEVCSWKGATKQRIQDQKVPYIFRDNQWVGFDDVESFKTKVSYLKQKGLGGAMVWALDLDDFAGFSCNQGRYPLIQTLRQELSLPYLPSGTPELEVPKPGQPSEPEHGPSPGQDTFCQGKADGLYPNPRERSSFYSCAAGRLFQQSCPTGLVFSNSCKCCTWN
T4 sequence (P36222 22-383 limits assumed): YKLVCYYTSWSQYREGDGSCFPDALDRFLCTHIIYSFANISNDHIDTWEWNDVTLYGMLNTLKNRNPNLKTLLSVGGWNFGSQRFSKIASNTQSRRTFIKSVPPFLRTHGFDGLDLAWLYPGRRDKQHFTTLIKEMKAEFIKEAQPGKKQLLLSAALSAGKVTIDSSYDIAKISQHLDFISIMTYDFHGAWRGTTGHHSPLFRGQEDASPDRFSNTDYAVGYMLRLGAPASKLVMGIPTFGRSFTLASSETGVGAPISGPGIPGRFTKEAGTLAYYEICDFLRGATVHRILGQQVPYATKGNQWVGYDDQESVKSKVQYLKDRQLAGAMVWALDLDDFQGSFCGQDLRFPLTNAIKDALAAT
T1 sequence (P36222 22-383 limits assumed): as above

B1: anti-CHI3L1 clone R4-54 (antibody, human IgG1, V domains shown)
VH: QVQLVESGGGVVQPGRSLRLSCAASGFTFSSYGMHWVRQAPGKGLEWVAVISYDGSDKDYADSVKGRFTISRDNSKNTLFLQMNSLRAEDTAVYYCARDDYDSTYYFDNWGQGTTVTVSS
VL: SYELTQPPSVSVSPGQTASITCSGDILADQYASWYQQKPGQSPVLVIYHDTKRPSGVPERFSGSTSGNTATLTISGTQAMDEAAYYCQAWDINTAWVFGGGTQLTVLG
notes: also called #hu R4-54; mAb clone R4-54
As for B1, in [1], the Kd – broadly, the concentration at which binding is half-saturated – is 4.22 nM. Also, the off-rate (koff) – broadly, the rate constant with which the complex falls apart – in test [1] came to 0.0065 s⁻¹. For the same molecule, the kon (as a rule, the second-order rate constant of association) in test [1] is 1.54e+06 M⁻¹ s⁻¹. The binding result in [2], in [3] and in test [5] was “no binding” in each case. Further, in test [4], the EC50 (read off the curve) (in general, the concentration giving half of the maximal effect) was around 0.8 µg/mL.

B2: anti-CHI3L1 clone R4-4 (antibody, V domains shown)
VH: EVQLLESGGGLLQPGGSLRLSCAASGLTFRNYAMTWVRQAPGKGLEWVSTISGNGDETFYADSVKGHFTISRDNSKDTVYLQMNSLRAEDTAVYYCAKGGHYSFFDSWGQGSPVTVSS
VL: NFMLTQPHSVSESPGKTVTISCTRSSGSIASNYVQWYQQRPGSSPTTVIYEDNQRPSGVPDRFSGSIDSSSNSASLTISGLKTEDEADYYCQSYDSSNYVFGTGTKVTVLG
notes: also called #hu R4-4; mAb clone R4-4
On to B2, for which the Kd in test [1] is 1.13 nM. The koff in [1] came out at 0.000353 s⁻¹. Besides, in [1], the kon turned out to be 313000 M⁻¹ s⁻¹. Also, the binding result is “binds” in [6], “no binding” in test [8] and “no binding” in test [10]. Besides, the concentration giving a half-maximal response (EC50 (read off the curve)) in test [7] was around 0.6 µg/mL; in [9], around 0.5 µg/mL.

B3: anti-CHI3L1 clone R4-62 (antibody, human IgG1, V domains shown)
VH: EVQLVESGGGLVQPGGSLRLSCAASGLTFPNFAMTWVRQTPGKGLQWVSTISGRGDEPFYADSVKGRFTISRDNSKNMVYLHMNSLRAEDTAIYYCAKGGHFSSWDYWGQGTLVTVSS
VL: B2 VL with G42D, S44A, N53I, Q54E, S66A, S71A, K82Q, N98S
notes: also called #hu R4-62
On to B3, for which, in test [11], the binding result is given as “binds”.

B4: anti-CHI3L1 clone 293R3-2 (antibody, human IgG1, V domains shown)
VH: QVQLQESGPGLVEPSGTLSLTCAVSGGSISSSNWWSWVRQHPGKGLEWIGEIYHSGSTNYNPSLRSRVTISVDKSKNQFSLELSSVTAADTAVYYCAGDQRMEDDAFDIWGQGTMVTVSS
VL: QSALTQPASVSGSPGQSITISCTGTSSDVGGYNYVSWYQQHPGKAPKLMIYDVSNRPSGVSNRFSGSKSGNTASLTISGLQAEDEADYYCSSYTSSSTLYVFGTGTKVTVLG
notes: also called #hu 293R3-2; CHI3L1 293R3-2
With B4, in test [1], the Kd was determined as 2.79 nM, the koff was 0.00302 s⁻¹ and the kon came out at 1.08e+06 M⁻¹ s⁻¹. Moreover, in [12], the binding result was “no binding”. For the same molecule, the concentration for a half-maximal effect (EC50 (read off the curve)) in test [13] was around 0.8 µg/mL. The binding result in test [14] is given as “no binding”. Moreover, the binding result in [15] was “no binding”.

B5: anti-CHI3L1 clone R4-39 (antibody, human IgG1, V domains shown)
VH: EVQLVQSGAEVRKPGESLKISCKASGYRFTNYWIGWVRQMPGKGLEWMGIIYPDDSNTKYSPSFQGQVTISVDKPITTAYLQWSSLKASDTAMYYCVRLDTYYYDSSGFPFDAFDIWGQGTMVTVSS
VL: DIQMTQSPSSLSAFVGDRVTITCQASQDISTFLSWYQQKPGKAPKLLIYDATNLETGVPSRFSGRGSGTDFTFTISSLQPEDVATYFCQQYDFLPLSFGGGTKVEIRR
notes: also called #hu R4-39
As to B5, the binding result is on record as “no binding” in [6] and “binds” in test [16].

B6: anti-CHI3L1 clone R4-63 (antibody, human IgG1, V domains shown)
VH: EVQLVQSGAEVKKPGATVKISCKVSGYTFTDYYMHWVQQAPGKGLEWMGLVDPEDGETIYAEKFQGRVTITADTSTDTAYMELSSLRSEDTAVYYCATIGRPPDYWGQGTTVTVSS
VL: QSVLTQPPSVSAAPGQKVTISCSGSSSNIGNNYVSWYQQLPGTAPKLLIYDNNKRPSGIPDRFSGSKSGTSATLGITGLQTGDEADYYCGTWDSSLSVWVFGGGTKLTVLG
notes: also called #hu R4-63
With B6, the binding result in [2] was “no binding”; in [11] it was “binds”.

B7: anti-CHI3L1 clone R4-2 (antibody, human IgG1, V domains shown)
VH: QVQLVQSGAEVKKPGSSVKVSCKASGGTFSSYAISWVRQAPGQGLEWMGGIIPIFGTANYAQKFQGRVTITADESTSTAYMELSSLRSEDTAVYYCARGDIEYYDILTGYYYYFDYWGQGTLVTVSS
VL: SYVLTQPPSVSVAPGKAARVTCGGNDIGSKSVQWYQQKPGQAPVLVISYDNDRPSGIPERFSGSNSGNTATLTISRVEAGDEADYYCQVWDSTSDHYVFGTGTKVTVQG
notes: also called #hu R4-2
For B7, the binding result in test [6] is “no binding”; in test [16], “binds”.

B8: anti-CHI3L1 clone R4-93 (antibody, human IgG1, V domains shown)
VH: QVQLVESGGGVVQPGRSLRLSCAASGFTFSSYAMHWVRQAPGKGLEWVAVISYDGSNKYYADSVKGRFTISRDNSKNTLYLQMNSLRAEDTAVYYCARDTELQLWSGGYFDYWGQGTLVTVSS
VL: NFMLTQPHSVSESPGKTVIISCTRSSGSIAHNYVQWYQLRPGSAPTTVISDDDQRPSGVPDRFSGSIDSSSNSASLTISGLRTEDEADYYCQSFDDSNWVFGGGTRLTVLG
notes: also called #hu R4-93
For the molecule B8, the binding result is on record as “no binding” in test [2] and “binds” in test [11].

B9: anti-CHI3L1 clone R4-53 (antibody, human IgG1, V domains shown)
VH: QVQLVQSGAEVKKPGASVKVSCKASGYTFTSYYMHWVRQAPGQGLEWMGIINPSGGSTSYAQKFQGRVTMTRDTSTSTVYMELSSLRSEDTAVYYCASDIGDYGDYWGQGTTVTVSS
VL: SYVLTQPPSVSVALGQTARITCGGNNIESKIVSWYQQKPGQAPVLVIFYDTDRPSGISERFSGSNSGNTATLTISRVEAGDEADYYCQVWDSNSDHVIFGGGTKLTVLG
notes: also called #hu R4-53
For B9, the figures for the binding result in test [2] and in test [11] were “no binding” and “binds”, respectively.

B10: anti-CHI3L1 clone 293R3-4 (antibody, human IgG1, V domains shown)
VH: EVQLVQSGAEVKKPGATVKISCKVSGYSFTDYYIHWVQQAPGKGLEWMGFVDPENGETIYAEKFQGRVTITADTSTDTAYMELSSLRSDDTAVYYCATDRDYDDSSGNAFDIWGQGTMVTVSS
VL: SYELTQPPSVSVSTGQTATITCSGDILGDEYAFWYQQKAGQSPVLVIYLDTRRPSGIPERFSGSNSGDTATLTISETQPVDEAVYFCQGWDSSTALYVFGTGTKVTVLG
notes: also called #hu 293R3-4; CHI3L1 293R3-4
Take B10: in test [1], the Kd came out at 3.94 nM, the off-rate (koff) came to 0.00722 s⁻¹ and the kon stood at 1.83e+06 M⁻¹ s⁻¹. Also, the binding result in [17] is listed as “no binding”. Also, in [18], the “EC50 (read off the curve)” value is around 0.8 µg/mL. For the same molecule, in test [19], the binding result is reported as “no binding”. In test [20], the binding result is given as “no binding (tested: 2.5 µg/ml coated protein)”.
